Experimental data reported in publication PMC7350259.

Experiments:
[1] = target: human rhinovirus strain RV2 (purified virus) (human rhinovirus 2 (RV-A, minor group)); test: ELISA; fluid phase competition: RV89 (25 µg/mL) or RV2 (2 µg/mL in the methods, 5 µg/mL in the results) pre-incubated with soluble receptor (50 µg/mL) overnight at 4 °C, then added to plate-bound receptor
[2] = target: human rhinovirus strain RV89 (purified virus) (human rhinovirus 89 (RV-A, major group)); test: as above

Substance	percent inhibition of RV2 binding to plate-bound LDLR (50 µg/mL LDLR) [1] [%]	percent inhibition of RV89 binding to plate-bound ICAM-1 (50 µg/mL ICAM-1, 25 µg/mL RV89) [2] [%]
recombinant human low density lipoprotein receptor (LDLR) (from UniProt P01130 22-788)	> 60	–
recombinant human ICAM-1/CD54 (intercellular adhesion molecule 1) (from UniProt P05362 28-480) (receptor)	–	> 95
